Test results: patent publication US12605469B2, “Tumor specific antibody conjugates and uses therefor” (The University of North Carolina at Charlotte, priority 2019, dated 2026)
“Also recorded” adds a separate entry of the source.

Legend:
[1] = test system: human pancreas and breast tumor tissue; experiment: immunohistochemical staining of human tumor and normal tissue; assay type: binding; details: IHC
Text: FIGS. 1A and 1B are a series of photomicrographs depicting specific binding of an exemplary antibody of the presently disclosed subject matter to human and mouse pancreatic tumors. The dark staining in the panels is indicative of positive binding of the exemplary antibody to cells present in the sample. […] FIG. 1B is a series of photomicrographs depicting the binding of an exemplary antibody of the presently disclosed subject matter to spontaneous tumors present in the pancreas of 6, 16, 26, and 34 week old transgenic mice that carried a human MUC1 transgene and a K-ras^G12D mutation.
FIGS. 2A and 2B are a series of photomicrographs depicting specific binding of an exemplary antibody of the presently disclosed subject matter (i.e., a horse radish peroxidase (HRP)-labeled TAB-004 anti-MUC1 monoclonal antibody) to human breast tumor tissue. […]
Epitope screening determined that the TAB-004 monoclonal antibody (mAb) described herein bound to an epitope present within SEQ ID NO: 3. […]

[2] = target: tumor-specific form of MUC1 (tMUC) (Homo sapiens, UniProt P15941); details: cited from earlier work
[3] = test system: CTCs; experiment: […] measurement of MUC1-expressing CTCs; assay type: cell-based, human; details: 7.5 ml blood spiked with PANC1 cells
Method: Both breast and pancreatic primary and metastatatic tumors express high levels of tumor-associated MUC1 recognized by the TAB-004 antibody of the presently disclosed subject matter. Therefore, CTCs in these patients should be recognized by the TAB-004 antibody. In preliminary experiments, levels of MUC1 were assessed using the TAB-004 antibody. First, the ability to use the Veridex […]® system to measure MUC1-expressing CTCs using 7.5 ml blood samples (analogous to human samples) spiked with PANC1 cells, which are a human pancreatic cancer cell line was tested. Approximately 90% of the CTCs (EpCAM+ cells) expressed MUC1. […] Therefore, using the TAB-004 antibody appears to accurately detect micrometastases in pancreatic and breast cancer patients.

[4] = target: T1, mutated K-ras (Mus musculus, UniProt P32883, G12D); experiment: staining of tumor tissues expressing the K-ras mutation but not human MUC1; assay type: binding
T1 construct: from tissue; host or cells: tumour tissue expressing the K-ras mutation but not human MUC1

[5] = test system: orthotopic tumors (PyVMT, PyVMT.MUC1, HCC-70, and AU565); experiment: IVIS imaging of TAB-004-ICG in Nu-J nude mice with orthotopic tumors; assay type: in vivo, mouse; details: ICG-conjugated
Method: FIGS. 18A-18D are a series of fluorescent images showing specific homimg of the ICG-tagged TAB-004 antibody to tumor sites in mice bearing PyV MT tumors (MUC1 null negative control; FIG. 18A), PyV MT.MUC1 tumors (MMT, MUC1+ positive control; FIG. 18B), HCC70 cell triple negative breast cancer (TNBC) tumors (MUC1+; FIG. 18C), and AU565 TNBC cell tumors (MUC1+; […]) imaged 4 hours post-injection with antibody. Imaging was repeated as tumors progressed (indicated as days post tumor challenge). […] Each of FIGS. 18A-18D is accompanied by a graph showing the growth of the tumor from 7-21 days (FIGS. 18A and 18B) or from 7 to 54 days (FIGS. 18C and 18D).
To test if TAB-004 can specifically reach TNBC tumors in vivo in mice, orthotopic tumors (PyVMT, PyVMT.MUC1, HCC-70, and AU565) were produced in the mammary fat pad of mice. Nu-J nude mice (8-week old) were injected with 10×10^6 cells in the lower right inquinal area of the mammary fat pad. When tumors were palpable, mice were injected retroorbitally with 12.5 μgs of TAB-004-directly conjugated to Indocyanine green (ICG) and imaged 4 hours post antibody injection. […] A negative breast cancer cell line that is null for human MUC1 was used as control to test specificity (PyVMT; see FIG. 18A).

[6] = test system: human breast cancer cell lines; experiment: flow cytometry of breast cancer cell lines with TAB-004 conjugated to Cy7; assay type: cell-based; details: Cy7 conjugate
Method: FIG. 13 is a series of plots of flow cytometric analyses of TNBC cell lines stained with a Cy7-conjugated TAB-004 monoclonal antibody (1 μg/sample). Compared to isotype control (solid trace in each panel; red lines in color photo), all cell lines expressed high to moderate levels of tMUC. MDA-MB-231 is mesenchymal in phenotype and loses MUC1 in vitro while Hs578T is a mesenchymal stem-like carcinosarcoma that has low expression of tMUC (depicted with dashed lines in each panel).
A 45-panel human breast cancer cell lines were tested for tMUC expression with TAB-004 conjugated to Cy7 and flow cytometry. […] In particular, apart from those with a mesenchymal phenotype, all cell lines expressed high levels of tMUC.

[7] = test system: KCM tumor cells; experiment: NK cell specific lysis of tumor cells; assay type: cell-based, mouse; details: various E:T ratios
Text: FIGS. 4A and 4B are graphs showing that an exemplary antibody of the presently disclosed subject matter (TAB-004) enhanced the cytotoxicity of Natural Killer (NK) cells to kill target tumor cells.
The TAB-004 antibody alone or conjugated to CpG ODN bound to a tumor cell line (referred to herein as the “KCM” cell line; see FIG. 3) generated from the triple transgenic PDA.MUC1.Tg mice.

B1: TAB-004: mAb of the IgG isotype produced by hybridoma ATCC PTA-11550; binds tumor-specific epitope of human MUC1 (antibody, V domains shown)
VH: EVQLQQSGGERATPGASVKMSCKTSGYTFTNYWMHWVKQRPGQGLEWIGYINPSSGYTQYNQKFKDKATLTADKSSSTAYIQLSSLTSEDSAVYYCSTYYGDYLFPYWGQGTLVTVSA
VL: DVLMTQTPLSLPVSLGDQASISCRSSQDIVYGNGNTYLEWYLQKPGQSPKLLIYKVSNRFSGVPDRFSGSGSGTDFTLKISRVEAEDLGVYYCFQGSHVPYTFGGGTKLEIKR
For B1, which “staining of normal tissue” value [1] is on record?
The value was “did not bind appreciably to normal pancreas or breast tissue; also recorded: did not bind to normal tissue”.

What about the “staining of tumor tissue” value [1] of the same molecule?
The value was “reacted strongly with tumor tissue; also recorded: strongly stained”.

And the binding affinity [2]?
The binding affinity was 3 ng/mL.

What about the “binding to unrelated antigens” value [2] of the same molecule?
The value was “does not bind unrelated antigens”.

What about the Kd ([2]; read-out: binding affinity) of the same molecule?
Its Kd is 0.02 nM.

And the “CTCs (EpCAM+ cells) expressing MUC1” value [3]?
Its value is “Approximately 90%”.

And the “cross reactivity with mutated K-ras” value [4]?
The value was “cross reacted with mutated K-ras”.

What about the “earliest specific localization to tumor sites, human cell lines” value ([5]; HCC70 and AU565, days post tumor challenge) of the same molecule?
The value was 21 days.

What about the “earliest specific localization to tumor sites, PyVMT.MUC1 tumors” value ([5]; days post tumor challenge) of the same molecule?
The value was 11 days.

And the “staining of breast cancer cell line subtypes” value ([6]; 45-panel)?
Its value is “stained strongly”.

What about the “staining of MDA-MB-231 cell line” value [6] of the same molecule?
The value was “stained weakly”.

What about the “specific lysis of tumor cells by NK cells” value [7] of the same molecule?
The value was “enhanced specific lysis of KCM tumor cells”.
